According to the nanobody polyreactivity screen of Harvey et al. (2022):

Assay: yeast display, Sf9 membrane polyspecificity reagent, FACS + sequencing; frameworks hold sequencing errors
Outline: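 Galactose induction of a Saccharomyces cerevisiae BJ5465 synthetic nanobody display library ran 36–48 hours. The cells were then stained for 1 hour at 4 °C with 10% biotinylated, detergent-solubilized Sf9 membrane reagent, pulled down on streptavidin microbeads and FACS-sorted into low and high (top ~1%) gates on expression and reagent-binding fluorescence. Labels for polyreactivity follow the gate of origin.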

Sequence | polyreactivity (PSR sort gate)
QVQLVESGGGLVQAGGSLRLSFAASGRIIGYYAMGWYRQAPGKERELVAAITRGGSTNYADSVKGRFTISRDNAKNTVYLQMNSLKPEDTAVYYCAADLARYGKRYDYWGQGTQVTVSS | low polyreactivity
QVQLVESGGGLVQAGGSLRLSFAASGRTFEPYPLGWYRQAPGKERELVAAIDVGDGTTYYAYSVKGRFTISRDNAKYTVYLELNSLKPEDTAVYYCAADVIGFVGSEDYWGQGTQVTVSS | low polyreactivity
QVQLVESGGGLVQAGGSLRLSFAASGRTFVRYAMVWYRQAPGKERELVAAISWSGGSTYYADSVKGRFTISRDNAKNTVYLQMNSLKPEDTAVYYCAAYYRGGNFDYWGQGTQVTLSS | high polyreactivity
QVQLVESGGGLVQAGGSLRLSFAASGRTFYQYGQGWYRQAPGKERELVAAISDSGGGTYYADSVKGRFTFSRDNAKNTVYLQMNSLIPEDTAVYYCAATYVGPRRRYYYWGQGTQVTVSS | high polyreactivity
QVQLVESGGGLVQAGGSLRLSFAASGSIFFGNAKGCYRQAPVKERELVAAITRRGGSTYYADSVKGRFTISRDNAKNPVYLQMYSLKAEDTAVYYCNGVSKRYGYGYWGQGTQVTVSS | high polyreactivity
QVQLVESGGGLVQAGGSLRLSFAASGSILSYYAMGWYTQAPGKERELGAAISKSGGRTYYADSVKGRFTISRDNEKNTVYLQMNSLKPEDTAVYYCAADRYYLSRRPVQNGNEYWGQGTQVTVSS | high polyreactivity
QVQLVESGGGLVQAGGSLRLSFAASGSTFHYYAMGWYRQAPGKERELVAAINSGARTYYADSVKGRFTISRDNAKNTVYLQMNSLKPEDTAVYYCAADDSYRSIGGDYWGQGTQVTVSS | low polyreactivity
QVQLVESGGGLVQAGGSLRLSFAASGSTFPKYAMRGYRPAPGKQRELVASISVTTGSTNYADSEKGRFTISRDNAKNTVYLQMNSLKPEDTAVYYCAADTVYRTHHYAQHYYYWGQGTLVTVSS | high polyreactivity
QVQLVESGGGLVQAGGSLRLSGAASGFTFFINGMGWYRQAPGKVRELVAAIRSSGASTYYADSVKGRFTISRDNAKNTVYLQMNSLKPEDTAVYYCNARSRVGNSVADYDYCGQGTQVTVSS | low polyreactivity
QVQLVESGGGLVQAGGSLRLSGAASGITFGDYAMGWYRQEPGKERELVAAISYSGGSTYYTDSVKGRFTISRDNAKNTVYLQMNSLKPEDTAVYYCAARFRQLGLAYYYWGQGTQVTVSS | high polyreactivity
QVQLVESGGGLVQAGGSLRLSGAASGLIFSRYAMGWYRQAPGKVRELVAAITSGTSTYDADSVKGRFTISRDNAKNTVYKQMNSLKPEDTAGYYCAARWWTYNARDYPDYYWGQGTQVTVSS | high polyreactivity
QVQLVESGGGLVQAGGSLRLSGAASGRYLFTWTAMGWYRQAPGIERELVAGITSGGNTYYADSVKGRFTISRDNPKNTVYLQMNSLKPEDTAVYYCAKGDGRRGDPYSRYDYCGQGTQVTVSS | low polyreactivity
QVQLVESGGGLVQAGGSLRLSGAASGSIFPGYAMGWYRQPPGKERELVATITWSGGSTYYADSVKGRFTISRDNAKNTVYLQMNSLKPEDSAVYYCAAERSWYTGFARDYDYWGQGTQVTVSS | low polyreactivity
QVQLVESGGGLVQAGGSLRLSGAASGSIFSVYAMGWYRQAPGKERELVASISRSGGSTYYADSVKGRFTISRDNAKNTVYLQMNSLKPEDTAVYYCAAYHPIQEYDYWGQGTQVTVSS | high polyreactivity
QVQLVESGGGLVQAGGSLRLSGAATGSIFKIMGWYRQAPGKERELVAAISSSVGNTYYADSVKGRFTISRDNAKNTVYLQMNSLKPEDTAVYYCAAQSKYYQYYSWGQRTQVTVSS | high polyreactivity
QVQLVESGGGLVQAGGSLRLSGASYGFIFVWYAMGWYRQAPGKEREFVAAITSLGGSTYYADSVKGRFTISRDNEKNSVYLHMYSLNPEDTADYYCNAEFFYRGSGYDSWGQGTQVTVSS | high polyreactivity
QVQLVESGGGLVQAGGSLRLSLAASGSIFARYAMGWYRQAPGKERELVAAITYTGGRTYYADSVKGRFTISSDYAKNTVYLKMNSLKPEDTAVFYCAKDGQATVRRGYDYWGQGTQVTVSS | high polyreactivity
